Assay results taken from paper PMC3870021.
pKd: −log10 of the molar value.

What was measured:
[1] = target: EPCR (Homo sapiens) (UniProt Q9UNN8); settings: cited from earlier work
[2] = target: recombinant human EPCR (extracellular domain Met1-Thr209, C-terminal poly-histidine tag) (human) (UniProt Q9UNN8); experiment: SPR
Chain of recombinant human EPCR (extracellular domain Met1-Thr209, C-terminal poly-histidine tag) (human) (Q9UNN8 18-209): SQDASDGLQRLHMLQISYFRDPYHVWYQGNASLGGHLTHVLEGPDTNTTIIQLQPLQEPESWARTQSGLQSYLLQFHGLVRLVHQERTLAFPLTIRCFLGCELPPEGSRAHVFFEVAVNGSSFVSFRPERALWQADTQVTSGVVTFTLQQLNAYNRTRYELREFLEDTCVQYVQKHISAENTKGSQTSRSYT

Chain of EPCR (Homo sapiens) (Q9UNN8 18-210): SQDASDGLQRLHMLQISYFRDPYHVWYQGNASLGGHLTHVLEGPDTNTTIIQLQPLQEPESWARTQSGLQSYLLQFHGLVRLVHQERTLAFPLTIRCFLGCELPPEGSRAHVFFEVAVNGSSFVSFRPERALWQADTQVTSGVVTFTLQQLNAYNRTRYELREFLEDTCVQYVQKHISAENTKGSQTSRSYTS

Row | Substance | pKd [1] | pKd [2]
1 | Activated protein C (from UniProt P04070) | 7.49 | 
2 | activated protein C (commercial human purified APC) (from UniProt P04070 43-197) (enzyme) |  | 6.00
3 | recombinant full-length DC8-containing PfEMP1 IT4VAR20 (natural protein) |  | 8.00
